Values of other authors, collected in US20030003565A1, “Functional lentiviral vector from an MLV-based backbone” (priority 2000, published 2003).

Details: patients with septic shock, constant infusion for three days; 44% with placebo infusions

B1: IL-1R: recombinant IL-1R given as constant infusion to patients with septic shock (protein, UniProt P14778 18-336, looked up)
extracellular domain: LEADKCKEREEKIILVSSANEIDVRPCPLNPNEHKGTITWYKDDSKTPVSTEQASRIHQHKEKLWFVPAKVEDSGHYYCVVRNSSYCLRIKISAKFVENEPNLCYNAQAIFKQKLPVAGDGGLVCPYMEFFKNENNELPKLQWYKDCKPLLLDNIHFSGVKDRLIVMNVAEKHRGNYTCHASYTYLGKQYPITRVIEFITLEENKPTRPVIVSPANETMEVDLGSQIQLICNVTGQLSDIAYWKWNGSVIDEDDPVLGEDYYSVENPANKRRSTLITVLNISEIESRFYKHPFTCFAKNTHGIDAAYIQLIYPVTNFQK
modifications: extracellular domain
In the case of B1, the 28 day mortality is listed as 16%.
